Experiments:
[1] = tested on: RSV pre-F antibody (7H11); assay: ELISA binding of RSV F antigen mutants, epitope Quaternary
Method: (§1) To investigate the binding of the RSV F antigen mutants to antibodies recognizing different epitopes, the binding amount was determined by an ELISA method in this example.
(§2) • 293T cells (purchased from ATCC cell bank); • Primary antibody: RSV pre-F antibody (3C12), epitope ([…] (Novoprotein, Cat. No.: DA101); • RSV pre-F antibody (7H11), epitope Quaternary (Novoprotein, Cat. No.: DA109); • RSV F antibody (11A9), epitope II (Novoprotein, Cat. No.: DA091); • RSV F antibody (4B9), epitope III (Novoprotein, Cat. No.: DA110); • RSV pre-F antibody (7E11), epitope V (Cat. No.: DA119); • Standard: RSV-pre-F trimer protein (Novoprotein, Cat. No.: DRA230); • Secondary antibody: peroxidase AffiniPure goat anti-human IgG (H+L) (Yeasen, Cat. No.: N/A); • Experimental group: mRNA vaccines after screening in Example 5;
(§3) Cell culture and transfection, and protein sample preparation: the experimental procedures were the same as in Example 3.
(§4) Detection of antigen expression by ELISA: the experimental procedures were the same as in Example 5.
(§5) In the present application, the binding of different mutant antigens to antibodies recognizing different epitopes was detected by ELISA, and the strength of the binding of the antigens to the antibodies was measured by the binding amount. (1) The RSV pre-F antibody (3C12) recognizing the epitope Φ binds only to the F protein in the pre-fusion conformation; (2) the RSV pre-F antibody (7H11) recognizes the epitope Quaternary (spanning both epitopes IV and V) and specifically binds to the F protein in the pre-fusion conformation; (3) the RSV F antibody (11A9) recognizing the epitope II can recognize both the pre-fusion and post-fusion conformations of the F protein; (4) the RSV F antibody […] recognizing the epitope III preferentially recognizes the pre-fusion conformation and has relatively weak binding activity for the post-fusion conformation; (5) the RSV pre-F antibody (7E11) recognizing the epitope V binds only to the F protein in the pre-fusion conformation.

[2] = tested on: RSV pre-F antibody (3C12); assay: Binding of epitope Φ of RSV F antigen mutants by flow cytometry; conditions: ratio of epitope Φ (3C12) to epitope II (11A9) binding rate
Method in brief: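 293T cells were transfected with mRNA-LNP (300 ng mRNA) encoding the RSV F mutants and harvested after 16 h. Cells were stained with fluorescent 3C12 (pre-F-specific epitope Φ) or 11A9 (epitope II, pre-F and post-F) for 2 h at 4 °C in the dark, then washed and read by flow cytometry on 1×10^4 cells per measurement.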

RSV F antibody (11A9) = assay: ELISA binding of RSV F antigen mutants, epitope II
Method: as §1, §2, §3, §4, §5

[3] = tested on: RSV pre-F antibody (3C12); assay: ELISA binding of RSV F antigen mutants, epitope Φ; conditions: epitope Φ
Method: as §1, §2, §3, §4, §5

B1: YK-RSV-057 (protein)
chain: QNITEEFYQSTCSAVSKGYLGALRTGWYTSVITIELSNIKENKCNGTDAKVKLIKQELDKYKNAVTDLQLLMQSTPATGSGSCIASGVAVSKVLHLEGEVNKIKSALLSTNKAVVSLSNGVSVLTFKVLDLKNYIDKQLLPILNKQSCSIPNIETVIEFQQKNNRLLEITREFSVNAGVTTPVSTYMLTNSELLSLINDMPITNDQKKLMSNNVQIVRQQSYSIMSCIKEEVLAYVVQLPLYGVIDTPCWKLHTSPLCTTNTKEGSNICLTRTDRGWYCDNAGSVSFFPQAETCKVQSNRVFCDTMNSRTLPSEVNLCNVDIFNPKYDCKIMTSKTDVSSSVITSLGAIVSCYGKTKCTASNKNRGIIKTFSNGCDYVSNKGVDTVSVGNTLYYVNKQEGQSLYVKGEPIINFYDPLVFPSDEFDASISQVNEKINQSLAFIRKSDELLHNVNAGKSTTNIMITTIIIVIIVILLSLIAVGLLLY
With B1 the “ELISA binding amount, Epitope Quaternary, RSV pre-F antibody (7H11)” value [1] was 6346 ng/mL, the “Binding amount to antibody/binding amount of PC-RSV-064 to antibody, Epitope Quaternary” value ([1]; antibody 7H11, relative to PC-RSV-064) was 1.76 and the “Φ/II (%)” value [2] was 97.1%. The “ELISA binding amount, Epitope II, RSV F antibody (11A9)” value (RSV F antibody (11A9)) was 2823 ng/mL, the “Binding amount to antibody/binding amount of PC-RSV-064 to antibody, Epitope II” value (RSV F antibody (11A9); antibody 11A9, relative to PC-RSV-064) was 1.34 and the “ELISA binding amount, Epitope Φ, RSV pre-F antibody (3C12)” value [3] was 5210 ng/mL. The “Binding amount to antibody/binding amount of PC-RSV-064 to antibody, Epitope Φ” value ([3]; antibody 3C12, relative to PC-RSV-064) was 1.88.
